According to the DeepSol protein solubility set:

Assay: soluble on expression in E. coli; label from the status in PepcDB or PDB records
For “MVTSPPTSSPSQRSYSPQDWLRGYQSQPQEWDYWVEDVEGSIPPDLQGTLYRNGPGLLEIGDRPLKHPFDGDGMVTAFKFPGDGRVHFQSKFVRTQGYVEEQKAGKMIYRGVFGSQPAGGWLKTIFDLRLKNIANTNITYWGDRLLALWEGGQPHRLEPSNLATIGLDDLGGILAEGQPLSAHPRIDPASTFDGGQPCYVTFSIKSSLSSTLTLLELDPQGKLLRQKTETFPGFAFIHDFAITPHYAIFLQNNVTLNGLPYLFGLRGAGECVQFHPDKPAQIILVPRDGGEIKRIPVQAGFVFHHANAFEENGKIILDSICYNSLPQVDTDGDFRSTNFDNLDPGQLWRFTIDPAAATVEKQLMVSRCCEFPVVHPQQVGRPYRYVYMGAAHHSTGNAPLQAILKVDLESGTETLRSFAPHGFAGEPIFVPRPGGVAEDDGWLLCLIYKADLHRSELVILDAQDITAPAIATLKLKHHIPYPLHGSWAQT”, the “soluble on expression in E. coli” value was “soluble”.
With “MVVDTEYYDLLGVSTTASSIEIKKAYRKKSIQEHPDKNPNDPTATERFQAISEAYQVLGDDDLRAKYDKYGRKEAIPQGGFEDAAEQFSVIFGGDAFASYIGELMLLKNLQKTEELNAEDEAEKEKENVETMEESPADGKTNGTTNAVDAALGNTNEKDDKNKARTTSGNLTVHDGNKKNEQVGAEAKKKKTKLEQFEEEQEVEKQKRVDQLSKTLIERLSILTESVYDDACKDSFKKKFEEEANLLKMESFGLDILHTIGDVYYEKAEIFLASQNLFGMGGIFHSMKAKGGVFMDTLRTVSAAIDAQNTMKELEKMKEASTNNGPLFDKDGNEQIKPTTEELAQQEQLLMGKVLSAAWHGSKYEITSTLRGVCKKVLEDDSVSKKTLIRRAEAMKLLGEVFKKTFRTKVEQEEAQIFEELVAEATKKKRHT” the “soluble on expression in E. coli” value was “not soluble”.
With “MVVFVASSRWDPSPDVIGQLCCLVSGGRSVPSTALKLGLSLSAAYRLAREYQLPVRVQTSTSASVTKSIETLWKQDVKPSDISTRLNVGTSVVYRIGIELGLWQRNPHGRRASATSRRCEYVMLRFGAMSRKDTAKVVGINPRETLDIDKGVTKLNGVGRVPCVPDEPDTELYKRLMQVVPYVDGRQAVPVEVIPQHAIDKRMSPR” the “soluble on expression in E. coli” value was “not soluble”.
For “MVVKFTKSEALHKEALEHIVGGVNSPSRSFKAVGGGAPIAMERGKGAYFWDVDGNKYIDYLAAYGPIITGHAHPHITKAITTAAENGVLYGTPTALEVKFAKMLKEAMPALDKVRFVNSGTEAVMTTIRVARAYTGRTKIMKFAGCYHGHSDLVLVAAGSGPSTLGTPDSAGVPQSIAQEVITVPFNNVETLKEALDKWGHEVAAILVEPIVGNFGIVEPKPGFLEKVNELVHEAGALVIYDEVITAFRFMYGGAQDLLGVTPDLTALGKVIGGGLPIGAYGGKKEIMEQVAPLGPAYQAGTMAGNPASMASGIACLEVLQQEGLYEKLDELGATLEKGILEQAAKHNIDITLNRLKGALTVYFTTNTIEDYDAAQDTDGEMFGKFFKLMLQEGVNLAPSKYEAWFLTTEHTKEDIEYTIEAVGRAFAALADNK”, the “soluble on expression in E. coli” value was “soluble”.
For “MVVSIIPQFPDIKVSLALFEQVKNAKEIRSKMSELSTSFAFIDPRLVCSGEQMYSAIYKTLIEVKYNKMRTRNLNSECVLCLSPTSNISDAFLKFGIKDDSSQLICLKFHTNTDDVDKEQLRTIMTSIVKGQEIEFNDDNLSRFYDEALIRKVCFNNKFEVKTSTASPETHCTNFTFVFLLFCFYLLDL”, the “soluble on expression in E. coli” value was “not soluble”.
In the case of “MVVYGKQKYIMKRCFYMNKKLKTEAVDHLFQAILTLKSTEECYSFFEDVCTVNELLSFSQRYEVAKMLREKRTYLEIADKTGASTATISRVNRSLNYGNDGYDMVFKRLEDQAAEDNEA”, the “soluble on expression in E. coli” value is reported as “not soluble”.
With “MVYFEEVRRHIRIDAAHVYGGLLATLTALYEYHQIPYEGIPVGTIKKKMTGKGNASKEEIIKVVCAKGHASCDDNEADALATLHVMKGKEIRHVN” the “soluble on expression in E. coli” value was “not soluble”.
In the case of “MVYWEYKINQTRRVMKNLKFQSVFDIIGPVMVGPSSSHTAGAVRIGKIVSAIFGDAPTEVEFQLFNSFAKTYRGHGTDVALVAGILGMETDDPDIPHALDIAHEKGIKVYWKINKDSKAPHPNTTRITLKNATKTISATGISIGGGNIQVTELNGF”, the “soluble on expression in E. coli” value is reported as “not soluble”.
In the case of “MWASPSPSVTVEFLEADSRLGGREVSLCKVAGQPDIRCECGWLELQPTRRSVNYEVVSSGGVTQSAALVTADFQSAEERSRLTVTVQLSSLARDMRDGYHEGFGAGLNNLASVAGRTMVLERVIKVPRNIVWKAWMNEKTLPQWWGPEGFSCRTKRIDLRTGGEWVFDMIGPDGTVFPNHHRYVEIRPEERLAYTLLWGENGPKHADAWASFEDQDGATKVVLGMVFSTDAEFQQAKGFGAVELGQQTLGKLERFAKFFLEHHHHHH”, the “soluble on expression in E. coli” value is reported as “soluble”.
For “MWGETFDDFENDEGEMAMAKQNLIAEPARADFTFAKLPLGIQPVDFMKTHFAETAGKSMQFRKGTTTLAFVYEPATPADKGGIIVAVDSRASSGEYISSKSVMKILDIGDRMVATMAGGAADCQFWTRIVAKYCTLYELREKTSITVSAASKYFANTLYGYRGQGLSVGSMVAGYDKKGPQIFKVDSEGDRCQLKVCSVGSGSLNAYGILDNHYKPKMTDDEARKLGLRAIMHATYRDSGSGGVCNLCHITPTEKIRLPPMDVSKLWYEFADELGRDITYNPVE”, the “soluble on expression in E. coli” value was “soluble”.
For “MWIEELANGKFKYIERYTDPLTNKYKKVSVTLDKNSSQAQKKAGLILQEKIEDRLAIRNHSEMTYGELKKEYLKQWIPTVKDSTKRGYLVSDSHIATVLPDDTIINKLTKRDIRLIIDKLLKHNSYHVTHKCRKRLHAIFSYAIQMDYMTSNPTENVLVPKPKDDYKPEKVLYLTSNEVYDLCNRMIDNDEQTLADIVLFMFLTGVRYGELSCLTYDKIDFENKEILINATYDFNTREITTTKTKKSTRKISVSDNILDIVNRQKKTSSFVFPNSNGVPILNAYINKRLKIYGDYHTHLFRHSHISFLAEKGIPLNAIMDRVGHSDPKTTLSIYSHTTVNMKEIINKQTAPFVPLLKSE”, the “soluble on expression in E. coli” value was “not soluble”.
With “MWIIEAEGDILKGKSRILFPGTYIVGRNVSDDSSHIQVISKSISKRHARFTILTPSEKDYFTGGPCEFEVKDLDTKFGTKVNEKVVGQNGDSYKEKDLKIQLGKCPFTINAYWRSMCIQFDNPEMLSQWASNLNLLGIPTGLRDSDATTHFVMNRQAGSSITVGTMYAFLKKTVIIDDSYLQYLSTVKESVIEDASLMPDALECFKNIIKNNDQFPSSPEDCINSLEGFSCAMLNTSSESHHLLELLGLRISTFMSLGDIDKELISKTDFVVLNNAVYDSEKISFPEGIFCLTIEQLWKIIIERNSRELISKEIERLKYATASNSTPQKIAAALEHHHHHH” the “soluble on expression in E. coli” value was “soluble”.
For “MWKAVMNAWNGTESQSKNVSNIQSYSFEDMKRIVGKHDPNVVLVDVREPSEYSIVHIPASINVPYRSHPDAFALDPLEFEKQIGIPKPDSAKELIFYCASGKRGGEAQKVASSHGYSNTSLYPGSMNDWVSHGGDKLDL”, the “soluble on expression in E. coli” value was “soluble”.
In the case of “MWLFEESAVGFCSNSGVIDNKHAGYTGTGFIDTENAVGASIVWSLSAASAKTYTAQIRFGNGGTSARRATVVVNDSQIKTLDFPTNSNWTQWQTVNVDIPLKAGTNSIKLVAETADGLANIDSIRVTGNGITPAACPLEHHHHHH”, the “soluble on expression in E. coli” value is reported as “soluble”.
In the case of “MWNETWNEITNELIQLSREPESEIPRITAEQRAYLKLVRPAAFVEGIAVLRVPHSRAKETIETHLGQAITSVLSRRMGRPFTVAVTVDPTLDVIQDLPHDVPEQHIVQHHVPEHPHYSPVSQGYPPHYAPEQSEYNTEYSDEYPSGWATYHVQTPQPSQSSQSAQQQPAQRMPDRRRYA”, the “soluble on expression in E. coli” value is reported as “not soluble”.
For “MWRRHYKLVPQIDTRDCGPAVLASVAKHYGSNYSIAYLRELSKTNKQGTTALGIVEAAKKLGFETRSIKADMTLFDYNDLTYPFIVHVIKGKRLQHYYVVYGSQNNQLIIGDPDPSVKVTRMSKERFQSEWTGLAIFLAPQPNYKPHKGEHHHHHH”, the “soluble on expression in E. coli” value was “soluble”.
In the case of “MYAAYQTNGPARPIARTAAFTKEDDLLVDMARQNNLRGRILTYCVAGTFGLLSPNYLHASAATANWDINQIEISGLSESSVGAISESARDIAHIRAVTKISVSELSRVFGVSRQAVHEWIKGGTLSQRNAQRLSELARATDVFIEAEIEASPQVFRRKIAGGQSILDAVRENGNAVELAKTLAATLVRESQQRQRLAARLAGRSATPGTSTEFGSPHLDEDA”, the “soluble on expression in E. coli” value is reported as “not soluble”.
In the case of “MYDAALGRWHAVDPMSEKYYSWSPYTYCKNNPVLRIDLDGKDDYVISRSGRLFNETPIDKRGKGSTDNLYLSSDRSISVTVNQGLLGEMHSMQAKEQKENRVKKSYGSTQDLETAATVFKFAADHTTVEWKLDVYDDNGTRTAVVATDRDPYGVDNGVYAQNKLSVKGEKVIDIHSHLPGGTKGGAGNDFNLAKPQRKNAVYMKDNRVSTDKKDMIYEYTKNASRVNSIRVYDATDLLQYIKRK”, the “soluble on expression in E. coli” value is reported as “not soluble”.
With “MYDCAAPSLSTGRNTMNHTAELEKALTDLRHITGISMEIHAETEEEVTKALEQLKLLSSAYKEKYNKIHFLQSLMTDSIPTYNVYDRAARLHIAPEEPRILYLLETSHSLDEDISEILKNLFPSQSGAFRIPLTEASCAILCPVRSLADSSQETVHLTARMIVDTVNAEALARVRVSYSKTLHNLLDLSTAFRETSLALKVGKLFYSEQTVFPYNRLGIGRLIYRLPTSLCENFLHEIFGEEIPQALDEETTATVNKFLQNNLNIAETSRQLHMHRNTLIYRLEQIEKRTGLDLRQFEDAMTFKIASMVMNYLYTERNIPHE” the “soluble on expression in E. coli” value was “not soluble”.
With “MYEGLLIDIDYLLNVVKELKINFDKKIKTLNLLIERNIPIVLYTENNKEYVDTIMKYLKIKEPAIIVEGAQIYSPFDLSYEAVFPLSINTVCKLGNWAMDRKMDMSISTDKKVIDYSEWLKELRQVNYKNAGDKLPSAVKVDICMKNDDKRIELLNFIGKNNLECYAHMYLNHVACINSIVDKGNTLKYLANKKKWDIKKFAMIGDYSKDTSIFDEVGFLMSISDFTKDFEKNFDKTLKSDMMSIV” the “soluble on expression in E. coli” value was “soluble”.
For “MYEYSFNPNIDHEPGSVESQQSTIYSDSDDSDDSFLDDEVIPPKEQAMRKIEFALADIKRQMDNKEKSLTLRISTSKSHFCLRYTAKRKGKLDRDLHCLHQVYDLLENDKRSTKRELYYEHKAVYGNQKYLDSSIKSICELLNESRANLNILSCGRGIIRGAITFLVENVGVIDARVQEVLITDALLFSNIISEADFILVVEKDTTFQKLMDENFQAMFPRGILATSKGYPDIATRNVLKMLSEKRKFPIYGLFDADPHGIEIYLTYKYGPTKEFAEGRGAFVPTIEWIGLFPTDFHRFTIDQSQCLPLVRTDFVKIEKMIPRSIQLGEIVVTRELDWMIQNKFKMELESINMCGQEYMARFLIAPRVMSIEKEIPIQPETIINEYHEDSQCSLSTDDDREAKDDDYIDSDAEEKFQNMIDNDSD”, the “soluble on expression in E. coli” value was “not soluble”.
In the case of “MYGLVNKAIQDMISKHHGEDTWEAIKQKAGLEDIDFFVGMEAYSDDVTYHLVGAASEVLGKPAEELLIAFGEYWVTYTSEEGYGELLASAGDSLPEFMENLDNLHARVGLSFPQLRPPAFECQHTSSKSMELHYQSTRCGLAPMVLGLLHGLGKRFQTKVEVTQTAFRETGEDHDIFSIKYEDSNLYDD”, the “soluble on expression in E. coli” value is reported as “soluble”.
For “MYIVVSTGDRAARIASKLPDCIIIDRDPDSAERLKEKGFNVLNGDASNPEILARFDMGEKIILADNDDFNIKVVKTAKLLGLDVYAVAADEDKCWLYEVEGVSKICGSVEALLSTIFRKNRYFEIQVEAEMEGKTL”, the “soluble on expression in E. coli” value was “not soluble”.
